B1: B2-4 (antibody, V domains shown)
VH: QVQLVQSGPTVRKPGASVRVSCKASGYPFTSNGMSWVRQAPGQGLEWMGWISTNSGNTNYAQKFQGRVTLTTDTSSTTTYLDLRSLTSDDTAIYYCARDVQYRMDVWGQGTTVTVSS
VL: QSVLTQPPSASGTPGQRVTISCSGSRSNIGSNPVNWYQHLPGTAPKLLVYSNNRRPSGVPDRFSGSKSGTSASLSISGLQSEDEGVYYCAAWDDNVHGVFGGGTKVTVL
notes: also called B2-4_HC; B2-4_LC
B2: B2-23 (antibody, V domains shown)
VH: QVQLVQSGAEVKKPGASVKVSCKASGYTFTHSYIHWVRQAPGQGLEWMGVINPVGGSTTYAQRFQGRVTMTRDTSTSTVYMELSSLRSEDTAVYYCARAGGDGYNPYFDYWGQGTLVTVSS
VL: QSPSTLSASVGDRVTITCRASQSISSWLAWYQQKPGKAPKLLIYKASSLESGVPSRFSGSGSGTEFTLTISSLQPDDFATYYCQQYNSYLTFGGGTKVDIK
notes: also called B2-23_HC; B2-23_LC
B3: B2-30 (antibody, human IgG1, V domains shown)
VH: QVQLVESGGGLVQPGGSLRLSCAASGFTFSSYDMHWVRQATGKGLEWVSAIGTAGDTYYPGSVKGRFTISRENAKNSLYLQMNSLRAGDTAVYYCARAKEYCSGGSCQDAFDIWGQGTMVSVSS
VL: QSPSSLSASVGDRVTITCRASQSIRTYLNWYQQKPGKDPELLIYAATSLQSGVPSRFTGSGSGTDFTLTISSLQPEDFATYYCQQSYSAPVFTFGQGTKLEIK
notes: also called B2-30_HC; B2-30_LC
B4: B2-1 (antibody, V domains shown)
VH: EVQLVQSGAEVKKPGSSVKVSCKASGGTFSSYAISWVRQAPGQGLEWMGGIIPIFGTANYAQKFQGRVTITADKSTSTAYMELSSLRSEDTAVYYCARGNQGDTAFDIWGQGTTVIVSS
VL: QSALNQPASVSGSPGQSITISCTGTSSDVGGYNYVSWYQQHPGKAPKLMIYDVSNRPSGVSNRFSGSKSGNTASLTISGLQAEDEADYYCSSYTSSSTPYVFGTGTKVTVL
notes: also called B2-1_HC; B2-1_LC
B5: B2-13 (antibody, V domains shown)
VH: B4 VH with E1Q, K74E, G99S, N100D, Q101Y, T104S, A105Y, I108Y, T114L, I116S
VL: B4 VL with S2A, A3V, L4V, N5T, I18V, T19S, Y32F, S97T, T98A
notes: also called B2-13_HC; B2-13_LC
B6: B2-27 (antibody, human IgG1, V domains shown)
VH: QVQLVQSGAEVKKPGSSVKVSCKASGGTFSSYAISWVRQAPGQGLEWMGGIIPIFGTANYAQKFQGRVTITADESTSTAYMELSSLRSEDTAVYYCARESYSSSSFDYWGQGTTVSVSS
VL: B4 VL with S2P, A3V, N5T, T72S
notes: also called B2-27_HC; B2-27_LC
B7: B2-26 (antibody, V domains shown)
VH: QVQLVQSGAEVKKPGASVKVSCKASGYTFTSYGISWVRQAPGQGLEWMGWISAYNGNTNYAQKLQGRVTMTTDTSTSTAYMELRSLRSDDTAVYYCARDRGGWFDPWGQGTLVIVSS
VL: QSPSSLSASVGDRVTITCRASQSISNFVNWYQQKPGEVPKLLIYGASSLQSGVPSRFSGSGSGTDFTLTISSLQPEDFATYYCQQGYSVPLTFGGGTTVDIK
notes: also called B2-26_HC; B2-26_LC
B8: B2-2 (antibody, V domains shown)
VH: QVQLVQSGAEVKKPGASVKVSCKASGYTFSDYGFSWVRQAPGQGLEWMGWISGYNGNTNYAQKFQGRVTMTIDASTSTAYMELRSLKSDDTAVYYCARLLLGYYGMDVWGQGTTVTVSS
VL: DIVMTQSPSSLSASVGDRVTLTCRASQSIGNYLNWYQQKPGKAPNLLIYAASSLQSGVPSRFSGSGSGTDFTLTISSLQPEDFATYYCQQSFSIPPITFGQGTRLEIK
notes: also called B2-2_HC; B2-2_LC
B9: B2-11 (antibody, V domains shown)
VH: QVQLQQSGPGLVKPSQTLSLTCAISGDSVSSNSAAWNWIRQSPSRGLEWLGRTYYRSKWYNDYAVSVKSRITINPDTSKNQFSLQLNSVTPEDTAVYYCARQDESAADDAFDIWGQGTLVIVSS
VL: QSVLTQPPSASGTPGQRVTISCSGSKSNVGNNFVHWYQQLPGTAPKLLLYSNLERSSGVPERFSGSKSGTSAYLAISGLRSDDEADYYCAAWDDSLPGWVFGGGTKLTVL
notes: also called B2-11_HC; B2-11_LC
B10: B2-9 (antibody, human IgG1, V domains shown)
VH: QVQLVQSGAEVKKPGASVKVSCKASGYTFTSYGISWVRQAPGQGLEWMGWISAYNGNTNYAQKLQGRVTMTTDTSTSTAYMELRSLRSDDTAVYYCARDGYGMDVWGQGTTVTVSS
VL: QSPSSLSASVGDRVTITCRTSHTVNSYLNWYQQEPGKAPKLLIYAASNLQSGVPSRFSGSGSGTDFSLTIHNLQPEDFATYYCQQSYRTPLTFGQGTKVDIK
notes: also called B2-9_HC; B2-9_LC
B11: B2-22 (antibody, V domains shown)
VH: B10 VH with D99V, Y101S, G102Y, M103G, V105Y, T111L
VL: QSPSSLSASVGDRVTITCRASQGISNYLAWYQQKPGKVPKLLIYAASTLQSGVPSRFSGSGSGTDFTLTISSLQPEDVATYYCQKYNSAPLTFGGGTKLEIK
notes: also called B2-22_HC; B2-22_LC
B12: B2-14 (antibody, V domains shown)
VH: B6 VH with E99A, Y101M, S102V, S103E, S104T, S105Y, T114M, S116T
VL: QSVLTQPRSVSGSPGQSVTISCTGTSSDVGGYNYVSWYQQHPGKAPKLMISEVSKRPSGVPDRFSGSKSGNTASLTVSGLQAEDEADYYCSSYAGGYTPYVFGTGTKVTVL
notes: also called B2-14_HC; B2-14_LC
B13: B2-3 (antibody, V domains shown)
VH: QVQLVQSGAEVKKPGASVKVSCRTSGYTFSSYGISWVRQAPGQGLEWMGWISGNTGNTKYTPKLQGRVTMTTDTSTSTAYMELRSLRSDDTAVYYCARDRGIAAGRAFDIWGQGTMVTVSS
VL: QPVLTQPPSASGTPGQRVTISCSGSSSNIGTNPVNWYQQVPGTGPKLLIYNNNQWPSGVPDRFSGSKSATSASLAIYGLQSGDEAHYYCSSWDDSLSAWVFGGGTKVTVL
notes: also called B2-3_HC; B2-3_LC

Where a chain is given by its changes, count along the chain named.

The first assay concerns the target T1, LILRB2 chimeric receptor on LILRB2 reporter cells (extracellular domain of LILRB2 fused with … (UniProt Q8N423 22-460)).
T1 construct: extracellular domain;domain: transmembrane/intracellular domains; associates with DAP12; also called LILRB2-expressing reporter cells
Nature of the assay: flow cytometry, LILRB2 reporter cells. From the text: FIGS. 1A-C. Screening specific monoclonal antibodies for LILRB2. […] Binding of monoclonal antibodies was screened using flow cytometer on LILRB2 reporter cells. Bound antibodies were detected with Allophycocyanin (APC)-labeled goat anti-human IgG secondary antibody. (FIG. 1B) Quantification of binding ability of monoclonal antibodies to LILRB2 reporter cells.
Screening specific monoclonal antibodies for LILRB2. The inventors employed a stable reporter cell system to detect the binding ability of selected monoclonal antibodies to LILRB2. In this chimeric receptor reporter system, the extracellular domain (ECD) of LILRB2 is fused with transmembrane/intracellular domains of PILRb that associates with the adaptor protein DAP12 containing an immunoreceptor tyrosine-based activation motif. 27 monoclonal antibodies were screened. The LILRB2 reporter cells were incubated with selected monoclonal antibody, then labeled with (APC) goat anti-human IgG secondary antibody. […] The inventors generated LILRBAs and LILRBs reporters stably transduced with each receptor's extracellular domain (ECD).
Background: Flow cytometry measures light scatter and fluorescence of single cells or particles in a stream.
For B1, the “% of cells anti-hIgG APC+” value stood at 0.7%. Same read-out and setting: to B2 belongs 0.47%; to B3, 4.92%; to B4, 1.69%.

In the case of B5, the “% of cells anti-hIgG APC+” value is 1.23%. On the same count and under the same terms, next, B6: 1.1%. Regarding B7, the “% of cells anti-hIgG APC+” value came out at 0.12%. Consider B8, for which the “% of cells anti-hIgG APC+” value was 0.14%.

In the case of B9, the “% of cells anti-hIgG APC+” value amounted to 0.28%. Same read-out and setting: next, B10: 0.09%; B11: 0.19%. In the case of B12, the “% of cells anti-hIgG APC+” value was found to be 3.74%. Turning to B13, the “% of cells anti-hIgG APC+” value is 0.58%.

The target of a further assay is T2, LILRB2-His antigen (UniProt Q8N423 22-460, limits assumed).
T2 construct: Coated on ELISA plates; also used for phage panning; also called LILRB2 antigen; not shown: His tag
Nature of the assay: indirect ELISA, coated LILRB2-His. On the procedure: ELISA binding EC of LILRB2 antibodies. The ELISA binding EC₅₀ of these 24 antibodies were measured by indirect ELISA. […] After incubation, HRP-conjugated goat anti-human Fc secondary antibody was incubated with the plates. The TMB substrate was added for color development and measurement of absorbance at 450 nm.
Background: ELISA stands for enzyme-linked immunosorbent assay.
In the case of B1, the midpoint of the response, the EC50, lay at 1.76 nM. B2: it took 2.44 nM to reach a half-maximal effect (EC50).

For the molecule B3, the EC50 (in general, the concentration needed to bring the measured effect to its halfway point) was 1.19 nM. For B5, the EC50 is 5.15 nM. On to B6, for which the EC50 is 379 nM. The same measure, in the same setting: next, B7: 1.02 nM. Regarding B8, the EC50 was determined as 1.6 nM.

On to B9, for which the EC50 was found to be 3.79 nM. Still for that read-out and setting: to B10 belongs 0.608 nM; to B11, 0.348 nM. Turning to B12, the EC50 was 1.97 nM. B13: a half-maximal response (EC50) required 0.787 nM.

(Values after US20230068663A1 (University of Texas, published 2023).)
